According to patent US20210292393A1 (published 2021):
Changes are numbered by the printed parent chain.

B1: antibody 510 (antibody, V domains shown)
VH: QVQLQESGPGLVKPSQTLSLTCTVSGGSISSGSYYWSWIRQPAGKGLEWIGRIYTSGSTNYNPSLKSRVTISVDTSKNQFSLKLSSVTAADTAVYYCAREGQWLYRFDYWGQGTLVTVSS
VL: QSALTQPASVSGSPGQSITISCTGTSSDVGNYDLVSWYQQHPGKAPKLVIYGVTKRPSGVSNRFSGSKSGNTASLTISGLQAEDEADYYCCSYATGDTSVFGTGTKVTVL
B2: antibody 516 (antibody, V domains shown)
VH: QVELQQWGAGLLKPSETLSLTCAVYGGSFSGYYWSWIRQPPGKGLEWIGEINHSGSTNYNPSLKSRVTISIDTSKNQFSLKLSSVTAADTAVYYCARGTTVTTFFAPHWYFDLWGRGTLVTVSS
VL: QSALTQPASVSGSPGQSITISCTGTSSDVGGYNYVSWYQQHPGKAPKLMIYDVSNRPSGVSNRFSGSKSGNTASLTISGLQAEDEADYYCSSYTSSSTPYVFGTGTKVTVL
B3: antibody 492 (antibody, V domains shown)
VH: QVQLVESGGGVVQPGRSLRLSCAASGFTFSSYGMHWVRQAPGKGLEWVAVISYDGSNKYYADSVKGRFTISRDNSKNTLYLQMNSLRAEDTAVYYCAKDGILWWWWGYFDYWGQGTLVTVSS
VL: QSVLTQPPSVSGAPGQRVTISCTGSSSNIGAGFDVHWYQQLPGTAPKLLIYGNSNRPSGVPDRFSGSKSGTSASLAITGLQAEDEADYYCQSYDSSLSVVFGGGTKLTVL
B4: antibody 504 (antibody, V domains shown)
VH: QVQLVESGGGVVQPGRSLRLSCAASGFTFSSYGMHWVRQAPGKGLEWVAVISYDGSNKYYADSVKGRFTISRDNSKNTLYLQMNSLRAEDTAVYYCAKGGGGGYCSGGSCYSHYFDYWGQGTLVTVSS
VL: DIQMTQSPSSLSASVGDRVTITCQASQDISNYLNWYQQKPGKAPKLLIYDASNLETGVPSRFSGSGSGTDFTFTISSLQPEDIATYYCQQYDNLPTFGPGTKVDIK
B5: antibody 496 (antibody, V domains shown)
VH: QVQLVQSGAEVKKPGASVKVSCKASGYTFTDYYIHWVRQAPGQGLEWMGWINPNSGGTNYAQKFQGRLTMTRDTSISTAYMELSRLRSDDTAVYYCARVYSMFREFIINPYYYYYGLDVWGQGTTVTVSS
VL: QSALTQPASVSGSPRQSITISCTGTSSDVGSYNLVSWYQQHPGKAPKLMIYEGSKRPSGVSNRFSGSKSGNTASLAISGLQAEDEANYYCCSYAGSSTLVFGGGTKLTVL
B6: antibody 509 (antibody, V domains shown)
VH: QVQLVESGGGVVQPGRSLRLSCAASGFNLSSYAMHWVRQASGKGLEWVSLISYDGSIKYYTDSVKGRFTVSGDNSKNTLFLQMNSLRADDSALYYCVRGGVSGPNSFDLWGQGTTVTVSS
VL: DVVMTQSPLSLPVTLGQPASISCRSSQSLVYSDGNTYVNWFQQRPGQSPRRLIYKVSIRASGVPDRFSGSGSGTDFALKISRVEAEDVGVYYCMQGTHWPVTFGQGTKVEIK
B7: antibody 517 (antibody, V domains shown)
VH: B6 VH with S31N, L109M
VL: B6 VL with K55Q
B8: antibody 497 (antibody, V domains shown)
VH: QVQLQESGPGLVKPSQTLSLTCTVSGGSINSFGYYWSWIRQHPGKGLEWIGYIYYSGSTDYNPSLNSRVTISLDTSKNQFLLKLTSVTAADTAVYYCAKLTDYYDSSGYSFDYWGQGTLVTVSS
VL: DIQMTQSPSSVSASVGDRVTITCRASQDISRWLAWYQQKPGKAPKLLIYAASSLQSGVPSRFSGRGSGTELTLTISSLQPEDFATYFCQQAYSFPFTFGGGTKVEIK
B9: antibody 514 (antibody, V domains shown)
VH: EVQLVQSGAEVKKPGATVKISCKVSGYTFTDYYMHWVQQAPGKGLEWMGLVDPEDGETIYAEKFQGRVTITADTSTDTAYMELSSLRSEDTAVYYCATDCKYDILTGHYSAGYYYYGMDVWGQGTTVTVSS
VL: DIQMTQSPSSLSASVGDRVTITCRASQGISNYLAWFQQKPGKAPKSLIYAASSLQSGVPSKFSGSGSGTDFTLTISSLQPEDFATYYCQQYNSYPFTFGGGTKVEIK
B10: antibody 351 (antibody, V domains shown)
VH: HVQLVESGGGVVQPGRSLRLSCAASGFISRNYGMEWVRQAPGQGLEWVAGIWYDGSKKYYADSVKGRFTISRDTSKNTLFLQMDSLRAEDTAVFYCATATKTFCGGDCPPGGMDVWGQGTTVTVST
VL: SYVLTQPPSVSVAPGKTAWITCVGNNIESESVHWYQQRPGQAPVLVIYYDSDRPSGIPERFFGSNSGNTATLTISRVEAGDEADYYCQVWDSNSDLMVFGGGTKLTVL
B11: antibody 363 (antibody, V domains shown)
VH: EVQLLESGGGLVQPGGSLRLSCAASGFTFSTYAMSWVRQAPGKGLEWVSAISGSGGSTYYADSVKGRFTISRDNSKNTLYLQMNSLRAEDTAVYYCASGYSPDYWGQGTLVTVSS
VL: not shown
B12: antibody 348 (antibody, V domains shown)
VH: QVQLVQSGSELKKPGASVKVSCKASGYTFTSYAMNWVRQAPGQGLEWMGWINTNTGNPTYAQGFTGRFVFSLDTSVSTAYLQISSLKAEDTAVYYCARDHELPNTSSWFGHFEYWGQGTLVTVSS
VL: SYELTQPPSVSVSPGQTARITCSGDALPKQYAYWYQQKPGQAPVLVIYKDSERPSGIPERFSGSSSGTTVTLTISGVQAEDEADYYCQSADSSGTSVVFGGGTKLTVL
B13: antibody 367 (antibody, V domains shown)
VH: QVQLVQSGAEVKKPGASVKVSCKASGYTFTGYYIHWVRQAPGQGLEWMGWINPNSGGTIYAQKFQGRVTMTRDTSISTAYMELSRLTSDDTAVYSCAREPYYDILTGYYAPRRYFDYWGQGTLVTVSS
VL: QSALTQPASVSGSPGQSITISCTGTSSDVGSYNYVSWYLQHPGKAPKLMIYDVSNRPSGVSNRFSGSKSGNTASLTISGLQAEDEADFYCSSYTSRSTYVFGTGTKVTVL
B14: antibody 345 (antibody, V domains shown)
VH: QVQLQESGPGLVKPSQTLSLTCTVSGGSISSGDYYWSWIRQPPGKGLEWIGYIYYSGSTYYNPSLKSRVTISVDTSKNQFSLKLSSVTAADTAVYYCARVGMVDNWNFEGNWFDPWGQGTLVTVSS
VL: QSALTQPRSVSGSPGQSVTISCTGTSSDVGGYNYVSWYQQHPGKAPKLMIYDVSKRPSGVPDRFSGSKSGNTASLTISGLQAEDEADYYCCSYAGSVVFGGGTKLTVL
B15: antibody 378 (antibody, V domains shown)
VH: QVQLVQSGAEVKKPGASVKVSCKASGYTFTSYYMHWVRQAPGQGLEWMGIINPSGGSTSYAQKFQGRVTMTRDTSTSTVYMELSSLRSEDTAVYYCARDSGGMDDFWSGYYSPGGDYWGQGTLVTVSS
VL: B5 VL with R15G, A76T, N87D, L99W
B16: antibody 366 (antibody, V domains shown)
VH: QVQLVESGGGVVQPGRSLRLSCAASGFTFSSYAMHWVRQAPGKGLEWVAVISYDGSNKYYADSVKGRFTISRDNSKNTLYLQMNSLRAEDTAVYYCARGLVGYNWFDPWGQGTLVTVSS
VL: DIQMTQSPSSVSASVGDRVTITCRASQGISSWLAWYQQKPGKAPKLLIYAASSLQSGVPSRFSGSGSGTDFTLTISSLQPEDFATYYCQQANSFTFGPGTKVDIK
B17: antibody 372 (antibody, V domains shown)
VH: QVQLVESGGGVVQPGRSLRLSCAASGFTFSSYAMHWVRQAPGKGLEWVAVISYDGSNKYYADSVKGRFTISRDNSKNTLYLQMNSLRAEDTAVYYCARDLGTSALLWFGELFLNYGMDVWGQGTTVTVSS
VL: QSALTQPRSVSGSPGQSVTISCTGTSSDVGGYNYVSWYQQHPGKAPKLMIYDVSKRPSGVPDRFSGSKSGNTASLTISGLQAEDEADYYCCSYAGSPILVFGGGTKLTVL
B18: antibody 344 (antibody, V domains shown)
VH: QVQLVESGGGVVQPGRSLRLSCAASGFTFSSYAMHWVRQAPGKGLEWMAVISYDGSNKYYADSVKGRFTISRDNSKNTLYLQMNSLRAEDTAVYFCAKGYSGSYYEPFDYWGQGTLVTVSS
VL: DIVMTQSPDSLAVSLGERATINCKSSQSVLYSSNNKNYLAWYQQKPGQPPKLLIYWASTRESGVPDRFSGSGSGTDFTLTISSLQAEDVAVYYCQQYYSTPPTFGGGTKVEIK
B19: antibody 333 (antibody, V domains shown)
VH: QVHLVESGGGVVLPGRSLRLSCSASQFIFSNYDMHWVRQSPGMGLEWVAGISSDGSDKYYIDSVRGRFTISRDNAKNTLFLQMNSLTTEDTAVYSCAKGGGKFGQYWGRGTLVTVSS
VL: AIQMTQSPSSLSASVGDRVTITCRASQVIRNDLAWFQQKPGEAPNLLVYSASNLQSGVPSRFSGSGSGTDFTLTISSLQPEDFATYYCLQDYSYPYTFGQGTKLDMK
B20: antibody 340 (antibody, V domains shown)
VH: QVQLVQSGAEVKKPGASVKVSCKASGYTFTSYDINWVRQATGQGLEWMGWMNPNSGNTGYAQKFQGRVTMTRNTSISTAYMELSSLRSEDTAVYYCARGRYCTGGVCWGDWYFDLWGRGTLVTVSS
VL: QSVLTQPPSVSGAPGQRVTISCTGSSSNIGAGYDVHWYQQLPGTAPKFLIYGNSNRPSGVPDRFSGSKSGTSASLAITGLQAEDEADYYCQSYDSSLSGPVFGGGTKLTVL
B21: antibody 343 (antibody, V domains shown)
VH: QVQLVESGGDVVQPGTSLRLSCAASGFTFNNYGFHWVRQAPGKGLEWVALISSDGASTHYADSVKGRFTISRDSSVNTLYLQMNSLSLEDTAVYYCATGHCGTTCYYFDYWGQGTLVSVSS
VL: DIQVTQSPSYLSASVGDRVTITCRASQTISTFLQWYQQKVGKAPKLLIYAASTLQSGVPSRFSGSGSGTDFSLTISSLQPEDFATYYCQQSYSAPLSFGGGTKVEIK
B22: antibody 380 (antibody, V domains shown)
VH: QVQLVESGGGVVQPGRSLRLSCAASGFTLKNYGMHWVRQAPGKGLEWVIVLSFDGSDEYKADSVRGRFTVSRDNSKNTLFLQMNSLRPDDTAVYYCAREQPTMIEGGRGPFDIWGQGTMVTVSS
VL: EVVMTQSPATLSVSPGDRATLSCRASQGVNSNLAWYQQKPGQAPRLLIYAASTRATGIPARFSASGSGTHFTLTISSLQSEDFAVYYCLQYNNWPPWTFGQGTKLEIK

target: SARS-CoV-2 full length spike protein, wild type, expressed on the surface of CHO cells (SARS-CoV-2, UniProt P0DTC2 14-1273)

Binder	median fluorescence fold over isotype control [fold over isotype]
B1	1.18
B2	3.31
B3	9.25
B4	2.78
B5	19.7
B6	10.2
B7	10.3
B8	28.3
B9	1.04

target: SARS-CoV-2 spike (S) protein, full length, wild type, expressed on the surface of CHO cells (SARS-CoV-2, UniProt P0DTC2 14-1273)

Binder	median fluorescence fold over isotype [fold over isotype]
B10	1.06
B11	16.8
B12	19.6
B13	26.5
B14	11.7
B15	25.3
B16	8.97
B17	30.2
B18	7.55
B19	1.27
B20	33.2
B21	1.12
B22	1.06
